Test results reported in the DeepSol protein solubility set.

Test: soluble on expression in E. coli; label from the status in PepcDB or PDB records

Sequence	soluble on expression in E. coli
GTERPYGQREVDHYAEKQAIAERAAQEVREGQVVCFDAGSTTMEVARAIPDTDYVAATNMPDLATELAEGDVDTKLTGGSLRPRTRALVGPTAERAVERMNFDLLFLGTNALDSAAGLSTPNEDEAAIKELMVERARRVVLVADASKFGDR	not soluble
MGNKRVLITGATGFIGGYLVDEALRRQYEVWAAVRPHSDRSRLTDSRIRFVEIDYRDPSDIARLADKIAPEGESAWHLVIHNAGITKARDTSLFREINAEQTKRFLIGLQGAKHCPERFVLMSSMGSYGAPPDDCQPLSSSSVPKPTTAYGESKLLAEQYVQTFVTIPYTIIQPTGVYGPHDQDYLMAIRSVDKGFDFSTGNTPQTLTFIYAEDLASAVFIAAEHPDAAGQKYIVSDGKEYTDIEFGRMIQHLLDRKNVCHLRIPLPLVKATCYIGQKWADISGTLTPLNLDKYAIIAQRNWRCDSSPIRAIGFSPRYNLEQGLAETIRWARTTGQIRR	not soluble
MINAVGNPQTLLLLGGTSEIGLAICEEYLKKAPMRVILAALPGDPGRDAAVAQLKAAGANAVDVIDFDAVDTESHPKVIDEAWAKSDVDVAIVAFGLLGDAEELWQNQRKAVQIAEVNYTAAVSVGVLVGEKMKAQGFGQIIAMSSAAGERVRRSNFVYGSTKAGLDGFYLGLGEALREFGPRVLVIRPGQVRTRMSADVKEAPLTVNKEDVAKLAVTSAEKGKDLVWAPGAFRYVMMILRHIPRPIFKKLPI	not soluble
MTMHREPGGERYYYTWAWFEGPDDAAWRVTGHHTDSGEQYRLDWNLAERSLCVTDSLGRTRCHWWDAQGLVTAYRDEAGQMTTFRWSDEERLLLGMTDAQGGKWRYVYDRLGHLTETHDPLGRVEQTQWHPVWHQPETEVDAAGAAWRYEYDERGNLQAVSDPLHQRTVYGYDRHGQVVRITDARGGDKYLQWNEDGQLMRHTDCSGSQTAWFYDERTRLERVTDAESNSTRYSYDGNGHLTEVMFADGRTERYQPDAAGRLVKYTSPAGQITRWQRDGQGRVRRQTDATGRRTAYEYDAYGRLTTLTNENGESYRFRYDVLDRLTEQTDPGGSRRAYGYNALNAVTAVIYGGERGGEIRHGLERDAAGRLTAKTTPETRTEYRYDAADRLLEIRRRRHDAAEGGEPEVIRFSYDSAGNLLSEETAQGVLQHRYDVQGNRTETQMPDGRTLRYLYYGSGHLQQINLGRDVISEFTRDHLHREVQRSQGRLDTRRMYDRTGRLTRKPTCKGMRGVVPETFIDREYAYSGQDELLKKRHSRQGVTDYFYDTTGRITACRNEAYLDSWQYDAAANLLDRRQGETAQAGAGSVVPFNRITSYRGLHYRYDEYGRVVEKRGRNGTQHYRWDAEHRLTEVAVIRGSTVRRYGYVYDAPGRRVEKHELDAEGKPYNRTTFLWDGMRLAQECRLGRSSSLYIYSDQGSHEPLARVDRAAPGEADEVLYYHTDVNGAPEEMTDGRGNIVWEAGYQVWGNLTHEKETRPVQQNLRFQGQYLDRETGLHYNLYRFYDPDIGKFISGDPISIRGGINLYQYAPNPIKWIDPLGLYNGEGQRELGKYHVFHEHNLDITEYGLSDAEHFSRGNQAIYERMKNDPAFRREMQTKYPGVVEHVQPSSGGKFSTESPPGLTWHHENKPGVLSLVDRLDHKTYHKIYHPLEHHHHHH	soluble
MGSDKIHHHHHHLEKAALILEGGALRSFFTSAVLDYFLEKQMDFEYIHGVSAGTMAAMNYISKQKRRSADVNLHFLHDKRYIGFNNLIRNGGIFNLDFLFSPECYDYSPFDYKAYNESKQIFEITATNVLTGKADIFRKTDTDGQEEAVKASASMPLVSDIRVVNHQPYLDGGIADSIPFRRAQELGYEKIVVVLTRDISYRKPENSRAMNRLVKFRYRDFPRFVQAFADRPQQYNRSLAEIERLEREGKIFVIRPQEPVSVSRVERDDKKLMALYEKGTEVIQNQFADLQKYLAQ	not soluble
MSEAIIAKKAEQVELIAEKMKAAASIVIVDSRGLTVDQDTVLRRSLRESGVEFKVIKNSILTRAAEKAGLDELKDVFVGPSAVAFSNEDVIAPAKVINDFTKTADALEIKGGAIEGAVSSKEEIQALATLPNREGMLSMLLSVLQAPVRNVAYAVKAVAENKEGAA	not soluble
MSEDKDMKNRNAMTIKRFVDVEEDGEHGGSGEFAELFQESIKQHRVGEVVTGKVVHISNEFVLVDIGYKSEGCIAIDEFLDEDGNLTVKVGDEVKALFERKENQKGYAVLSRRKAERLAVWDVIDEAGGEGGIIEGKITGKVKGGLTVDIGVQAFLPASQVDLRPGGNLDKYIGTTDRFKVLKLNKKRGNIVLSRRVLMEEERESSRKETLATLAEGQVREGVVKNITDYGAFVDIGGVDGLLHVTDMSWGRLGHPSEILKPGDKLNVKVLKYDQEKGKISLGLKQVTPDPWVSVEQKYNQGDRVKGKVVSLTDYGAFIALEDGVEGLVHVSEMSWTRRLRHPSEILTVGDEVETVVLGVDMGNRRISLGLKQVQVNPWTQLEEKYPVGTKLEGQIKSITDFGVFIGIEEGIDGLVHVSDISWTKRIKHPGEVFTKGQTVQAVVLNIDPENERLSLGIKQLLLDPWSEIPVKYRPGTRVHGKVTSVTDFGVFLEIEEGIEGLIHVSELSREKVASPKEFTNVGDELDAVVLSVDESEKKIALSIKSLQMAAEKAEIESYMQAQGEATSNLGELLKVGFRKNGDGNDLEHHHHHH	not soluble
MGSDKIHHHHHHMSATSLYRLFAPQIEFLSPAEKQVFFYIDNHISTIEKMSLTSLAESTNVSTTTVIRMCHKLKLSGFSELKFLLHSDKTETKPLSKDYSSTFLEKIRLGIEQLPKKEIEQVATRIAYAPKIYIACLGMTKTLGEYFSKSLVTSKKNVVFTYDSFIIDILPQIVERDDLIIIISESGGTENTLSLAEHLKYNLSNVIAIVNNPNAQISQYVETIIYASSEEFDEDSFKHHHAPLLIVIDLILNIFEQQKKLI	not soluble
MKKLIIIPAYNESSNIVNTIRTIESDAPDFDYIIIDDCSTDNTLAICQKQGFNVISLPINLGIGGAVQTGYRYAQRCGYDVAVQVDGDGQHNPCYLEKMVEVLVQSSVNMVIGSRFITKEGFQSSFARRIGIKYFTWLIALLTGKKITDATSGLRLIDRSLIERFANHYPDDYPEPETVVDVLVSHFKVKEIPVVMNERQGGVSSISLTKSVYYMIKVTLAILVVRLKGNR	not soluble
MGSDKIHHHHHHMNLKSGYPFWSIRNGLMRPYPRLEQDTHCEVAIIGGGVTAALIAHELLRHGHEVVVIEQREIGWGSTSASTALLQYEIDTPMVDLAAQYGMPAAALAYGACAKAILDLQELCDGLGGCDFTRQDSLYYASRARDLKDLQRELDARKTHALPVEWIAGDALWHDYGVRSEGAILSRLAASVDPYRLCYRLFAECEQYGGRIYDRSPIATLQAHDQHVDLRTQDGVNVRARHVIMAAGYGNQQWLSQRVARNRSSYAFVTDPLHDTDVGALKHTMMWETARPYLYVRTTADGRVVAGGEDDSIDIPARRDARVLSKMDTLLKKIAKVMPDVRLRPVFAWGGTFAETADGLPFFGTHSEHGPRVAFAMAYGGNGITYSAIGAGLLRAQLEGRAYPLSDLFGFSRLG	not soluble
TTNKPIVLSTWNFGLHANVEAWKVLSKGGKALDAVEKGVRLVEDDPTERSVGYGGRPDRDGRVTLDACIMDENYNIGSVACMEHIKNPISVARAVMEKTPHVMLVGDGALEFALSQGFKKENLLTAESEKEWKEWLKTSQYKPIVNIENHDCIGMIALDAQGNLSGACTTSGMAYKMHGRVGDSPIIGAGLFVDNEIGAATATGHGEEVIRTVGTHLVVELMNQGRTPQQACKEAVERIVKIVNRRGKNLKDIQVGFIALNKKGEYGAYCIQDGFNFAVHDQKGNRLETPGFALK	soluble
GPGSMAGAADPRDEDAKAVNAVLRLPEDDFYAVLGLGEAREDATERDIKNAFRRLSKKYHPDVATGDQDSYRLVYQRVQRAYEVLGDRRKRKIYDILGIDGVTRLEKPQQQQQMNPFFAFFGVGQQADAERGKDMVLLMVVPLEDIYRGAAHTSRFAKRKICRACKGTGARSGEDVVKCPHCQGRGRLAQRVQIAPGFVQQVEQVCPHCQGKGTHVAHMCPVCRGKMVLPGEAVLSVDIEEGLPEGHVLTYELEADQAPGQVPGDVLLTVISAPHPVFHRSGNDLYANVSITLKEALLGFKKTLAHLDGHNVELHWDGVMQNTQQVRIAGEGMPRHHVPSERGDLYITYNVLLPEALTAEQRALFQEHFA	not soluble
MGSDKIHHHHHHMTETLVQVQKLAMDFPGQKLFNNLSFDVDRRDFLSIIGENGVGKTTLIRALLNQVKPTSGSIKFRKGTKVGYVPQFRNIERDYPLSIRDFVALNLQNGKMPWLSKMERTQLDEILEETDLVDIQNTRIGRASGGQKQKAYLAQALVDNPDLLILDESTASLDTVRKYELFNLVQHFNQQHDLTVISVTHDFDLMQRYSNRYLMLKEDHYALGEVADIKNEEDLLDV	not soluble
MSYPMTPVKRPTISHGIQASDGIIKRPIEGNKKRLSAPIKDKPEHRIAPEEITNAPTTSRLRRAPEFDVVVIMKTTKKDRKKIIQTPRRRSIKLANVPMTPKTAPIRRHSTGGNAAMSTPKRRKSFGSLAPVRQHRVETRKVVRNLMAVRPPLCF	soluble
MGSDKIHHHHHHMNVLYVTVDALRADHVTPELMPNVSGFVDRSIEYERCYANGPGTPWSFPALLGSQYSGANDGVGIPGEDDSRPTLAEVLRDEGYETAGFTDNHFASSDYNYDRGMTTMFDAGATSSEKRLKQAVRKRLDHDGTLYQMLLRGHHLIDDLLVKIQGRDTRFTRAETLIDSLVDWIDERNDQWFAWLHPMDTHAPYEAPDDYQEQFLDEPIPRRRSQKLARKATHHPDELSDDEWELQQQLYKAECSYLDDQIGRLLDSFPEPERENTLLVFTADHGEMHGEHGLGGHPQQFWEEVIHVPCAISAPGFEATTVNEQAALIDIPPTILDAVGIDAPEYWDGMSVLPDEGTVQEREYVFVDVESELNRNHAGVRRSDNWKLMRHDDEGELLLDLDTNPEEDPEQTRLNDAPEAYRALTDSLDNHLDEMERRRSGETSGIEDEELIEDHLRELGYLE	not soluble
TKNWSWTASANAAWQKVRIKNLTLTPGAPSPDTEVGPWIDAYQMQVFSTDYAPYSFYLYKQLYDAETGQPIEGLYADLDGDGEITNKDRYHHHSPAPDWILGFSTSLRYKKWTLSTSLRANIGGYIFNGMAMNTGAWETMSYNDYQLNNLNRSFLDTRFTKRQFLSDHYLENASFLKMDNLQLSYDFGRIYKTIGLHASAMVQNVFTVTKYKGVDPETANGVDTSVYPRPRTYSITIGLNF	not soluble
EGELRLGERVLVVGQRLGTIRFFGTTNFAPGYWYGIELEKPHGKNDGSVGGVQYFSCSPRYGIFAPPSRVQRVTDSLDTLSEI	soluble
MGHHHHHHSHGESEDVTQFLQSHKKTLTNEKLFLMDGKRTWFLEMESTPGEDAMNTVKMTTKDLKYDRSLIDKAGFERTDSNFERSHTVGKMLSNSIMCYRDIFYERESQLMQQTSLLSYEIAIATPTFSNYYPDWSAPINIVARPSTSKKIMTC	not soluble
MPVETREISVTAKEDCGIVDITGIVSEEVEKSEIKNGTVTVFCVGSTGAISTMEFESNLSKDISEILDKLIPLNEDYHHHKTWGDFNGGSHLRSFLLGPSLTVPFVEKKLTLGTWQQIVYINFDRIEKVRKIVLQIIGDLLEHHHHHH	soluble
MKFFIAFACLLAVALANEDANVLRAEQQVNVDGFAYAVELDNSVNVQQKGDLNGEEWVVKGSQSWTSPENVPVSIQYIADANGYQVVSANPPLPTPPPIPEAIQRSLEYIAAHPPSQLEHHHHHH	not soluble
